Tests used:
Assay in all cases: MST
[1] = molecular target: human ADK (adenosine kinase), recombinant (UniProt P55263 2-362)
[2] = molecular target: human NDPK-A (nucleoside diphosphate kinase A), full-length recombinant (UniProt P15531 2-152)
[3] = molecular target: T1, recombinant human FABP4 (fatty acid binding protein 4) (UniProt P15090 2-132)
T1 chain: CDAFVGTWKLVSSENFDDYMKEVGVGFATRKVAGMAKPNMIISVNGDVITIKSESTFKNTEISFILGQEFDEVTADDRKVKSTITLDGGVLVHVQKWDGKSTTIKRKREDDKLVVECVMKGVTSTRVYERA

Sequence of human NDPK-A (nucleoside diphosphate kinase A), full-length recombinant (P15531 other isoform, or with tags, fused parts or gaps): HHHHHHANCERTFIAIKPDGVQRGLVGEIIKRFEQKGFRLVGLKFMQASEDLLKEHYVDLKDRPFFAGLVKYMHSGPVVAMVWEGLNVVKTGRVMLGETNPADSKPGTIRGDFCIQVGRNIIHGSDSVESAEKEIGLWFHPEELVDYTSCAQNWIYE
Sequence of human ADK (adenosine kinase), recombinant (P55263 2-362): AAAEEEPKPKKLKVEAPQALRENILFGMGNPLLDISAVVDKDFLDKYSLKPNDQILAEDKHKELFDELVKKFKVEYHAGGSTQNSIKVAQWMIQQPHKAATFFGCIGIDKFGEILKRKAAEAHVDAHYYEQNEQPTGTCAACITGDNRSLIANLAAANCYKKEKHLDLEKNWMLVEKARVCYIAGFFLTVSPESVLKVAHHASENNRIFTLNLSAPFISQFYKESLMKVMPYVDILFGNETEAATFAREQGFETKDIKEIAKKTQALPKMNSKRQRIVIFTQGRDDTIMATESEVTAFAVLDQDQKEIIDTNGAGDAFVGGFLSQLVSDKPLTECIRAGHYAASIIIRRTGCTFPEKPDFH

B1: CA33 (a-Ab) monoclonal antibody (antibody)
heavy: QSVEESGGRLVTPGTPLTLTCTVSGFSLSTYYMSWVRQAPGKGLEWIGIIYPSGSTYCASWAKGRFTISKASTTVDLKITSPTTEDTATYFCARPDNDGTSGYLSGFGLWGQGLVTVSSAKTTPPSVYPLAPGSAAQTNSMVTLGCLVKGYFPEPVTVTWNSGSLSSGVHTFPAVLQSDLYTLSSSVTVPSSTWPSETVTCNVAHPASSTKVDKKIVPRDC
light: DVVMTQTPASVSEPVGGTVTIKCGASEDISRYLVWYQQKPGQPPKRLIYKASTLASGVPSRFKGSGSGTDFTLTISDLECDDAATYYCQCTYGTYAGSFFYSFGGGTEVVVERTDAAPTVSIFPPSSEQLTSGGASVVCFLNNFYPKDINVKWKIDGSERQNGVLNSWTDQDSKDCTYSMSSTLTLTKDEYERHNSYTCEATHKTSTSPIVKSFNRNEC
- EC50 [1]: 1.88 µM
- EC50 [2]: 0.143 µM
- Kd [3]: 2.86 µM
